{
  "source": "patent US6902918B1",
  "about": "“Oxygenase enzymes and screening method” (California Institute of Technology, priority 1998, dated 2005)",
  "molecules": {"B1": {"name": "HRP: horseradish peroxidase; purchased from Sigma (type II) or expressed from synthetic gene in pETpelBHRP (protein, listed as Escherichia coli)", "chain": "MQLTPTFYDNSCPNVSNIVRDTIVNELRSDPRIAASILRLHFHDCFVNGCDASILLDNTTSFRTEKDAFGNANSARGFPVIDRMKAAVESACPRTVSCADLLTIAAQQSVTLAGGPSWRVPLGRRDSLQAFLDLANANLPAPFFTLPQLKDSFRNVGLNRSSDLVALSGGHTFGKNQCRFIMDRLYNFSNTGLPDPTLNTTYLQTLRGLCPLNGNLSALVDFDLRTPTIFDNKYYVNLEEQKGLIQSDQELFSSPDATDTIPLVRSFANSTQTFFNAFVEAMDRMGNITPLTGTQGQIRLNCRVVNSNS"}, "B2": {"name": "HRP1A6: horseradish peroxidase mutant, Asn255 changed to Asp, SEQ. ID. NO. 17 (protein, listed as Escherichia coli)", "chain": "B1 chain"}, "B3": {"name": "WT: native cytochrome P450cam monooxygenase of P. putida, SEQ. ID. NO. 2 (protein)", "chain": "TTETIQSNANLAPLPPHVPEHLVFDFDMYNPSNLSAGVQEAWAVLQESNVPDLVWTRCNGGHWIATRGQLIREAYEDYRHFSSECPFIPREAGEAYDFIPTSMDPPEQRQFRALANQVVGMPVVDKLENRIQELACSLIESLRPQGQCNFTEDYAEPFPIRIFMLLAGLPEEDIPHLKYLTDQMTRPDGSMTFAEAKEALYDYLIPIIEQRRQKPGTDAISIVANGQVNGRPITSDEAKRMCGLLLVGGLDTVVNFLSFSMEFLAKSPEHRQELIERPERIPAACEELLRRFSLVADGRILTSDYEFHGVQLKKGDQILLPQMLSGLDERENACPMHVDFSRQKVSHTTFGHGSHLCLGQHLARREIIVTLKEWLTRIPDFSIAPGAQIQHKSGIVSGVQALPLVWDPATTKAV", "modifications": "P. Putida"}, "B4": {"name": "M7-6H (protein)", "chain": "B3 chain with R280L, E331K", "modifications": "Mutant M7-6H"}, "B5": {"name": "M7-4H (protein)", "chain": "B3 chain with E331K", "modifications": "Mutant M7-4H"}, "B6": {"name": "M7-8H (protein)", "chain": "B3 chain with C242F, E331K", "modifications": "Mutant M7-8H"}},
  "key": {"[1]": {"test": "Colorimetric coupling of naphthol by laccase or HRP in cell solutions", "type": "biochemical", "settings": "1-naphthol 100 uM", "protocol": "Laccase was purchased from Sigma Chemicals as a crude acetone powder from the […] Rhus vernificera. […] Type II HRP (RZ approximately 2.0) and all other chemicals were purchased from Sigma. Fluorescence readings were taken with a Perkin-Elmer HTS 7000 plate reading fluorimeter. Excitation and emission wavelengths were 360 nm and 465 nm, respectively.\nExperiments were performed at 25° C. in the wells of opaque, white Nunc 96-well plates with a total liquid of 200 uL. Except where stated otherwise, each well contained 10% pure ethanol to improve the solubility of substrates and products. Where HRP was used for comparison, approximately 2.3 units of HRP and 5 mM H2O2 were in each well. […] Tris buffer was not used because it increases background fluorescence. Except where stated, results are given from conditions at pH 9.0, which were either the best results or barely distinguishable from the other conditions.\nIn order to evaluate laccase in a useful whole cell assay to identify the formation of hydroxylated aromatic compounds by oxidative enzymes (such as cytochrome P450cam and toluene dioxygenase), laccase was added to solutions containing cells, naphthalene, and naphthol. P450cam was expressed in E. coli strain BL21(DE3) using plasmid pCWori+. BL21(DE3) cells with and without the expressed protein were grown in Terrific Broth and after 8 hours were induced with 1 mM IPTG for 24 hours. […]"}, "[2]": {"settings": "ABTS assay; reported by Sigma; cited from earlier work"}, "[3]": {"test": "HRP peroxidase activity test with ABTS and H2O2, expression in E. coli", "type": "cell-based, E. coli BL21(DE3)", "protocol": "The PCR products were ligated back into the pET-22b(+) vector which was transformed into the BL21(DE3) cells by electroporation. Cell growth and expression was carried out in either 96-well or 384-well microplates in LB medium at 30° C. Peroxidase activity tests were performed with H2O2 and ABTS (32).\nIPTG was omitted in all HRP expression experiments, unless otherwise specified. Peroxidase activity tests for HRP were performed with a classical peroxidase assay, ABTS and hydrogen peroxide (26). Fifteen μl of cell suspension was mixed with 140 μl of ABTS/H2O2 (2.9 mM ABTS, 0.5 mM H2O2, pH 4.5) in microplates, and the activity was determined with a SpectraMax plate reader (Molecular Devices, Sunnyvale, Calif.) at 25° C. A unit of HRP is defined as the amount of enzyme that oxidizes 1 μmole of ABTS per min at the assay conditions."}, "[4]": {"test": "Stability of mutant HRP at 4° C."}, "[5]": {"test": "Fluorescence image analysis of colonies on agar plates with naphthalene and hydrogen peroxide", "type": "cell-based, E. coli BL21(DE3)", "settings": "naphthalene as substrate"}, "[6]": {"test": "Whole cell naphthalene hydroxylation assay, P450cam in E. coli with added HRP, 96-well plate", "type": "cell-based", "settings": "TB and 1.3 mM ALA, 100 μL volume"}, "[7]": {"test": "96-well plate whole cell assay of P450cam variants, generation of fluorescence per time, coumarin", "type": "cell-based, E. coli", "settings": "whole cells", "protocol": "(§1) For the microtitre plate assay, the cells (grown in 4 ml TB/amp (100 ug/ml) media) were centrifuged for 10 min at 4° C. After the supernatant solution was removed, the harvested cells were carefully resuspended in 1 ml buffer solution (dibasic phosphate, 100 mM, pH 9.0). Then, 20 μl aliquots were placed into a Nunc fluorescence microplate. The total 180 μl reaction mixture was made up of 100 μl dibasic sodium phosphate buffer (100 mM, pH9.0), 20 μl ethanol, 10 μl substrate stock (4.5 mM coumarin in 10% ethanol, or 2 mM 3-phenylpropionate in 10% ethanol, 2 mM naphthalene in pure ethanol), and 10 μl hydrogen peroxide stock solution (50 mM H2O2 stock). The other reaction conditions are those described in EXAMPLE 2. The fluorescence was measured as a function of time, and the relative rates presented in Table 2 are the slopes of that measurement (RFU/min)."}, "[8]": {"test": "96-well plate whole cell assay of P450cam variants, generation of fluorescence per time, 3-phenylpropionate", "type": "cell-based, E. coli", "settings": "for Relative rate towards 3-phenylpropionate (generation of fluorescence per time): whole cells, 96-well plate", "protocol": "as §1"}, "[9]": {"type": "cell-based, E. coli", "settings": "for Relative rate towards naphthalene (generation of fluorescence per time): whole cells, 96-well plate"}},
  "note": "Changes are numbered by the printed parent chain.",
  "data": [
    {"molecule": "B1", "values": [
      {"measurement": "time for color change from light yellow to dark brown", "setting": "[1]", "result": "approximately 1 minute"},
      {"measurement": "total activity of 1 mg of highly purified HRP", "setting": "[2]", "result": "1,000 units"},
      {"measurement": "peroxidase activity in cells induced with IPTG", "setting": "[3]; 1 mM IPTG", "result": "no peroxidase activity above background"},
      {"measurement": "activity against ABTS in cells not induced with IPTG", "setting": "[3]; no IPTG", "result": "weak but measurable activity"}
    ]},
    {"molecule": "B2", "values": [
      {"measurement": "total activity", "setting": "[3]; ABTS assay", "result": "greater than 100 units/L"},
      {"measurement": "peroxidase activity on addition of IPTG", "setting": "[3]; as little as 5 μM of IPTG added", "result": "markedly decreased activity"},
      {"measurement": "concentration of active HRP", "setting": "[3]; estimated from ABTS activity", "result": "~100", "unit": "µg/L"},
      {"measurement": "higher peroxidase activity than the parent clone", "setting": "[3]; first generation, no IPTG added", "result": "10-14 fold"},
      {"measurement": "share of HRP activity found in the LB culture medium", "setting": "[3]; judged by the ABTS activity", "result": "greater than 95%"},
      {"measurement": "stability", "setting": "[4]", "result": "stable for up to a week"}
    ]},
    {"molecule": "B3", "values": [
      {"measurement": "colony fluorescence in digital scan", "setting": "[5]", "result": "~320", "unit": "fluorescence units"},
      {"measurement": "total activity (whole cell naphthalene hydroxylation)", "setting": "[6]", "result": 430, "unit": "RFU/min"}
    ]},
    {"molecule": "B4", "values": [
      {"measurement": "Relative rate towards coumarin (generation of fluorescence per time)", "setting": "[7]", "result": 14.1, "unit": "RFU/min"},
      {"measurement": "increase in activity on 3-phenylpropionate compared to wild-type", "setting": "[8]; another series of experiments", "result": 3.2, "unit": "fold"},
      {"measurement": "Relative rate towards 3-phenylpropionate (generation of fluorescence per time)", "setting": "[8]", "result": 43.6, "unit": "RFU/min"},
      {"measurement": "increased activity over the wild type, naphthalene hydroxylation", "setting": "[9]; from Table 2 data", "result": 9.4, "unit": "fold"},
      {"measurement": "Relative rate towards naphthalene (generation of fluorescence per time)", "setting": "[9]", "result": 86.7, "unit": "RFU/min"}
    ]},
    {"molecule": "B5", "values": [
      {"measurement": "Relative rate towards coumarin (generation of fluorescence per time)", "setting": "[7]", "result": 11.5, "unit": "RFU/min"},
      {"measurement": "Relative rate towards 3-phenylpropionate (generation of fluorescence per time)", "setting": "[8]", "result": 42.8, "unit": "RFU/min"},
      {"measurement": "Relative rate towards naphthalene (generation of fluorescence per time)", "setting": "[9]", "result": 84.1, "unit": "RFU/min"}
    ]},
    {"molecule": "B6", "values": [
      {"measurement": "Relative rate towards coumarin (generation of fluorescence per time)", "setting": "[7]", "result": 12.8, "unit": "RFU/min"},
      {"measurement": "Relative rate towards 3-phenylpropionate (generation of fluorescence per time)", "setting": "[8]", "result": 35.4, "unit": "RFU/min"},
      {"measurement": "Relative rate towards naphthalene (generation of fluorescence per time)", "setting": "[9]", "result": 53.1, "unit": "RFU/min"}
    ]}
  ]
}
